Data reported in patent US20210388087A1 (Chugai, published 2021).
Positions count from the first letter of the chain named.

B1: H183/L072 VL V27cN (antibody, name in Kabat numbering, V domains shown)
VH: QVQLVESGGGLVQPGRSLRLSCAASGFTFSNAWMHWVRQAPGKGLEWVAQIKDKGNAYAAYYAPSVKGRFTISRDDSKNSIYLQMNSLKTEDTAVYYCHYVHYASASTVLPAFGVDAWGQGTTVTVSS
VL: DIVMTQSPLSLPVTPGEPASISCQASQELNHMNRNTYLHWYQQKPGQAPRLLIYKVSNRFPGVPDRFSGSGSGTDFTLKISRVEAEDVGVYYCAQGTSVPFTFGQGTKLEIK
notes: Dual-Ig
B2: H183/L072 VL V27cP (antibody, name in Kabat numbering, V domains shown)
VH: B1 VH
VL: B1 VL with N30P
notes: Dual-Ig
B3: H183/L072 VL V27cQ (antibody, name in Kabat numbering, V domains shown)
VH: B1 VH
VL: B1 VL with N30Q
notes: Dual-Ig
B4: H183/L072 VL V27cR (antibody, name in Kabat numbering, V domains shown)
VH: B1 VH
VL: B1 VL with N30R
notes: Dual-Ig
B5: H183/L072 VL V27cS (antibody, name in Kabat numbering, V domains shown)
VH: B1 VH
VL: B1 VL with N30S
notes: Dual-Ig
B6: H183/L072 VL V27cT (antibody, name in Kabat numbering, V domains shown)
VH: B1 VH
VL: B1 VL with N30T
notes: Dual-Ig
B7: H183/L072 VL V27cW (antibody, name in Kabat numbering, V domains shown)
VH: B1 VH
VL: B1 VL with N30W
notes: Dual-Ig
B8: H183/L072 VL V27cY (antibody, name in Kabat numbering, V domains shown)
VH: B1 VH
VL: B1 VL with N30Y
notes: Dual-Ig
B9: H183/L072 VL V51A (antibody, name in Kabat numbering, V domains shown)
VH: B1 VH
VL: B1 VL with N30V, V56A
notes: Dual-Ig
B10: H183/L072 VL V51D (antibody, name in Kabat numbering, V domains shown)
VH: B1 VH
VL: B1 VL with N30V, V56D
notes: Dual-Ig
B11: H183/L072 VL V51E (antibody, name in Kabat numbering, V domains shown)
VH: B1 VH
VL: B1 VL with N30V, V56E
notes: Dual-Ig
B12: H183/L072 VL V51F (antibody, name in Kabat numbering, V domains shown)
VH: B1 VH
VL: B1 VL with N30V, V56F
notes: Dual-Ig
B13: H183/L072 VL V51G (antibody, name in Kabat numbering, V domains shown)
VH: B1 VH
VL: B1 VL with N30V, V56G
notes: Dual-Ig
B14: H183/L072 VL V51H (antibody, name in Kabat numbering, V domains shown)
VH: B1 VH
VL: B1 VL with N30V, V56H
notes: Dual-Ig
B15: H183/L072 VL V51I (antibody, name in Kabat numbering, V domains shown)
VH: B1 VH
VL: B1 VL with N30V, V56I
notes: Dual-Ig
B16: H183/L072 VL V51K (antibody, name in Kabat numbering, V domains shown)
VH: B1 VH
VL: B1 VL with N30V, V56K
notes: Dual-Ig
B17: H183/L072 VL V51L (antibody, name in Kabat numbering, V domains shown)
VH: B1 VH
VL: B1 VL with N30V, V56L
notes: Dual-Ig
B18: H183/L072 VL V51M (antibody, name in Kabat numbering, V domains shown)
VH: B1 VH
VL: B1 VL with N30V, V56M
notes: Dual-Ig
B19: H183/L072 VL V51N (antibody, name in Kabat numbering, V domains shown)
VH: B1 VH
VL: B1 VL with N30V, V56N
notes: Dual-Ig
B20: H183/L072 VL V51P (antibody, name in Kabat numbering, V domains shown)
VH: B1 VH
VL: B1 VL with N30V, V56P
notes: Dual-Ig
B21: H183/L072 VL V51Q (antibody, name in Kabat numbering, V domains shown)
VH: B1 VH
VL: B1 VL with N30V, V56Q
notes: Dual-Ig
B22: H183/L072 VL V51R (antibody, name in Kabat numbering, V domains shown)
VH: B1 VH
VL: B1 VL with N30V, V56R
notes: Dual-Ig
B23: H183/L072 VL V51S (antibody, name in Kabat numbering, V domains shown)
VH: B1 VH
VL: B1 VL with N30V, V56S
notes: Dual-Ig
B24: H183/L072 VL V51T (antibody, name in Kabat numbering, V domains shown)
VH: B1 VH
VL: B1 VL with N30V, V56T
notes: Dual-Ig
B25: H183/L072 VL V51W (antibody, name in Kabat numbering, V domains shown)
VH: B1 VH
VL: B1 VL with N30V, V56W
notes: Dual-Ig
B26: H183/L072 VL V94A (antibody, name in Kabat numbering, V domains shown)
VH: B1 VH
VL: B1 VL with N30V, V99A
notes: Dual-Ig
B27: H183/L072 VL V94D (antibody, name in Kabat numbering, V domains shown)
VH: B1 VH
VL: B1 VL with N30V, V99D
notes: Dual-Ig
B28: H183/L072 VL V94E (antibody, name in Kabat numbering, V domains shown)
VH: B1 VH
VL: B1 VL with N30V, V99E
notes: Dual-Ig
B29: H183/L072 VL V94F (antibody, name in Kabat numbering, V domains shown)
VH: B1 VH
VL: B1 VL with N30V, V99F
notes: Dual-Ig
B30: H183/L072 VL V94G (antibody, name in Kabat numbering, V domains shown)
VH: B1 VH
VL: B1 VL with N30V, V99G
notes: Dual-Ig
B31: H183/L072 VL V94H (antibody, name in Kabat numbering, V domains shown)
VH: B1 VH
VL: B1 VL with N30V, V99H
notes: Dual-Ig
B32: H183/L072 VL V94I (antibody, name in Kabat numbering, V domains shown)
VH: B1 VH
VL: B1 VL with N30V, V99I
notes: Dual-Ig
B33: H183/L072 VL V94K (antibody, name in Kabat numbering, V domains shown)
VH: B1 VH
VL: B1 VL with N30V, V99K
notes: Dual-Ig
B34: H183/L072 VL V94L (antibody, name in Kabat numbering, V domains shown)
VH: B1 VH
VL: B1 VL with N30V, V99L
notes: Dual-Ig
B35: H183/L072 VL V94M (antibody, name in Kabat numbering, V domains shown)
VH: B1 VH
VL: B1 VL with N30V, V99M
notes: Dual-Ig
B36: H183/L072 VL V94N (antibody, name in Kabat numbering, V domains shown)
VH: B1 VH
VL: B1 VL with N30V, V99N
notes: Dual-Ig
B37: H183/L072 VL V94P (antibody, name in Kabat numbering, V domains shown)
VH: B1 VH
VL: B1 VL with N30V, V99P
notes: Dual-Ig
B38: H183/L072 VL V94Q (antibody, name in Kabat numbering, V domains shown)
VH: B1 VH
VL: B1 VL with N30V, V99Q
notes: Dual-Ig
B39: H183/L072 VL V94R (antibody, name in Kabat numbering, V domains shown)
VH: B1 VH
VL: B1 VL with N30V, V99R
notes: Dual-Ig
B40: H183/L072 VL V94S (antibody, name in Kabat numbering, V domains shown)
VH: B1 VH
VL: B1 VL with N30V, V99S
notes: Dual-Ig
B41: H183/L072 VL V94T (antibody, name in Kabat numbering, V domains shown)
VH: B1 VH
VL: B1 VL with N30V, V99T
notes: Dual-Ig
B42: H183/L072 VL V94W (antibody, name in Kabat numbering, V domains shown)
VH: B1 VH
VL: B1 VL with N30V, V99W
notes: Dual-Ig
B43: H183/L072 VL Y32A (antibody, name in Kabat numbering, V domains shown)
VH: B1 VH
VL: B1 VL with N30V, Y37A
notes: Dual-Ig
B44: H183/L072 VL Y32F (antibody, name in Kabat numbering, V domains shown)
VH: B1 VH
VL: B1 VL with N30V, Y37F
notes: Dual-Ig
B45: H183/L072 VL Y32G (antibody, name in Kabat numbering, V domains shown)
VH: B1 VH
VL: B1 VL with N30V, Y37G
notes: Dual-Ig
B46: H183/L072 VL Y32H (antibody, name in Kabat numbering, V domains shown)
VH: B1 VH
VL: B1 VL with N30V, Y37H
notes: Dual-Ig

target: T1, Human CD137 ECD (human); experiment: Biacore SPR, vs parent H183/L072
T1 construct: entry includes C-terminal His-tag and biotin acceptor peptide; also called human CD137 extracellular domain; 4-1BB
T1 sequence (chain, as listed by the source limits assumed): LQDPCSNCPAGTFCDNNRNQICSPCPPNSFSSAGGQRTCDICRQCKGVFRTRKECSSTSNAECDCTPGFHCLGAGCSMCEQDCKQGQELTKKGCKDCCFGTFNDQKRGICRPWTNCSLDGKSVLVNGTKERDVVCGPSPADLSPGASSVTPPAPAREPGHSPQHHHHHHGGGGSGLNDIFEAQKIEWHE

Binder | fold change of affinity [fold]
B1 | 0.5
B2 | 0.5
B3 | 0.8
B4 | 0.9
B5 | 0.3
B6 | 0.7
B7 | 0.7
B8 | 0.7
B9 | 0.8
B10 | 0
B11 | 0.6
B12 | 0.2
B13 | 0.4
B14 | 0.6
B15 | 0.6
B16 | 1.4
B17 | 1.7
B18 | 1
B19 | 0.3
B20 | 0
B21 | 0.8
B22 | 1.4
B23 | 0.6

Binder | fold change of affinity [fold]
B24 | 0.6
B25 | 0.1
B26 | 0.1
B27 | 0
B28 | 0
B29 | 0
B30 | 0
B31 | 1.8
B32 | 0.7
B33 | 0.1
B34 | 0.3
B35 | 0.7
B36 | 0.2
B37 | 0.1
B38 | 0.8
B39 | 0.4
B40 | 0
B41 | 0.4
B42 | 0
B43 | 0.1
B44 | 1.7
B45 | 0.1
B46 | 0.1
